Data: PMC2865256 (Journal of immunology (Baltimore, Md. : 1950), 2009)

Target: T1, mouse HVEM on splenic T cells (mouse (endogenous in splenic T cells), UniProt Q80WM9 39-275)
T1 sequence (looked up): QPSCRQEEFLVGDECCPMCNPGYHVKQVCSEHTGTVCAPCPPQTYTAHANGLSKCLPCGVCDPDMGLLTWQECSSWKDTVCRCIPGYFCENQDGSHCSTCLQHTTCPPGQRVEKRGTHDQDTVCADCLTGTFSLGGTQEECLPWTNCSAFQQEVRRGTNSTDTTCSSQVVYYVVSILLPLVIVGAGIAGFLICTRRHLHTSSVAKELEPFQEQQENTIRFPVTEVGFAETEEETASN
Test: flow cytometry on cells

MFI ratio of Btla-/- T cells to WT T cells: 4.4
B1: mouse BTLA-Fc (Fc fusion, UniProt Q7TSA3 30-183, looked up)
chain: EKATKRNDEECPVQLTITRNSKQSARTGELFKIQCPVKYCVHRPNVTWCKHNGTICVPLEVSPQLYTSWEENQSVPVFVLHFKPIHLSDNGSYSCSTNFNSQVINSHSVTIHVRERTQNSSEHPLITVSDIPDATNASGPSTMEERPGRTWLLY
